What was measured:
HUVEC cells = assay: HUVEC proliferation assay; type: cell-based, human; conditions: found in high salt fraction of EL4 and L1210 tumor lysates
Procedure: HUVEC proliferation assay: HUVEC at passage less than 8 were used in the study. Day 1: 3000 cells/well (96-well plate) were plated onto 1% gelatin-coated plate in the assay media (DMEM:F12 50:50) with 1.5% FBS. Day 2: Media was changed and cells were treated with various growth factors or conditioned media. Day 3: ^3H-thymidine was added at 0.5 μCi/well. Day 4: 250 mM EDTA/well was added to stop the reaction in the morning. Cells were harvested onto 96-well filter plate and washed with water 3 times. ^3H samples were counted with TOPCOUNT liquid scintillation counter.

monocytes = assay: Monocyte migration assay; type: cell-based, human; conditions: found in high salt fraction of EL4 and L1210 tumor lysates
Procedure: Monocyte migration assay: Step 1: isolation of monocyte from human PBMC. Blood was diluted with PBS 1:1 (v/v). The diluted blood was slowly added on top of Ficoll and centrifuged at 3000 rpm for 15 min at room temperature (RT) without break. Plasma was removed and white cells were collected (9˜5 ml interphase). Cells were washed in migration buffer containing PBS with 0.5% BSA (low in endotoxin), spun at 1850 rpm (9˜800 g) for 10 min at RT and cells were counted. Step 2: Magnetic labeling of cells. Cell pellet was resuspended in MACS buffer containing PBS with 0.5% BSA (low in endotoxin) and 2 mM EDTA, 30 μl per 10^7 cells. FcR blocking reagent and Biotin-antibody cocktails were added and mixed well. The cells were then incubated for 10 min at 4° C. after which 30 μl more MACS buffer per 10^7 cells was added and anti-biotin Microbeads was added. This was mixed well and incubated for 10 min at 4° C. Cells were washed with MACS buffer by adding 10-20 fold more of the labeling volume, spun at 300g (1250 rpm) for 10 min. Cells were resuspended in up to 10^8 cells in 2 ml buffer. Step 3: Magnetic separation with LS columns. LS column (Miltenyi Biotec) was placed in the magnetic field holder. Column was rinsed with MACS buffer. Cell suspension was applied to the column. Unlabelled flow was collected, which represents enriched monocyte fraction. […]

B1: bFGF: growth factor found in the high salt fraction of resistant tumor lysates (protein, UniProt P15655 10-154, looked up)
Fibroblast growth factor 2: PALPEDGGAAFPPGHFKDPKRLYCKNGGFFLRIHPDGRVDGVREKSDPHVKLQLQAEERGVVSIKGVCANRYLAMKEDGRLLASKCVTEECFFFERLESNNYNTYRSRKYSSWYVALKRTGQYKLGSKTGPGQKAILFLPMSAKS
proliferation of HUVEC cells (HUVEC cells): contribute to the proliferation of HUVEC cells
chemotactic activity (monocytes): not chemotactic activity
